# Experiments:
# [1] = target: KOR R156^3.50A (human) (UniProt P41145)
# [2] = target: κ-opioid receptor in homogenous membrane fractions expressing KOR (human) (UniProt P41145)
# [3] = target: BRIL-wt-KOR(54–368) reconstituted into nanodiscs (human) (UniProt P41145)
# [4] = target: KOR N336^8.49A (human) (UniProt P41145)
substance,measurement,setting,value
wild-type Gg (gustducin) heterotrimeric G protein (from UniProt A8MTJ3 1-354; P62873 1-340; P59768 1-71) (complex),"efficacy of GR89,696-mediated Gg activation, BRET2, normalized to U50,488",[1],46%
same,"efficacy of momSalB-mediated Gg activation, BRET2, normalized to U50,488",[1],38%
same,"efficacy of GR89,696-mediated Gg activation, BRET2, normalized to U50,488",[2],103%
same,"efficacy of momSalB-mediated Gg activation, BRET2, normalized to U50,488",[2],106%
same,"fold increase of the high-affinity binding sites (Bmax) for the agonist radioligand ^3H-U69,593 in saturation binding, with 1 μM G protein against KOR alone",[3],7 fold
wild-type Gi1 heterotrimeric G protein (from UniProt P63096 1-354; P62873 1-340; P59768 1-71) (complex),"loss in potency of agonist-mediated Gi1 coupling against wild-type KOR, BRET2",[4],2 fold
same,"fold increase of the high-affinity binding sites (Bmax) for the agonist radioligand ^3H-U69,593 in saturation binding, with 1 μM G protein against KOR alone",[3],62 fold
wild-type GoA heterotrimeric G protein (from UniProt P09471 1-354; P62873 1-340; P59768 1-71) (complex),"loss in potency of agonist-mediated GoA coupling against wild-type KOR, BRET2",[4],14 fold
same,"fold increase of the high-affinity binding sites (Bmax) for the agonist radioligand ^3H-U69,593 in saturation binding, with 1 μM G protein against KOR alone",[3],38 fold
wild-type Gz heterotrimeric G protein (from UniProt P19086 1-355; P62873 1-340; P59768 1-71) (complex),"loss in potency of agonist-mediated Gz coupling against wild-type KOR, BRET2",[4],9 fold
same,"fold increase of the high-affinity binding sites (Bmax) for the agonist radioligand ^3H-U69,593 in saturation binding, with 1 μM G protein against KOR alone",[3],14 fold

# From publication PMC10172140
